Measured values taken from the supplement of paper PMC9732359.
± gives the uncertainty stated by the source.

Experiment: protein stability index of a GFP-peptide fusion (yeast GPS) (PSI 1-4); higher = more stable; sorted into four equal gates, so the index is relative within each strain
Outline: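 Tiled 17-residue peptides from yeast proteins were fused downstream of GFP on a plasmid that also expresses Cherry, and the pooled library was carried in yeast. Mid-log cultures grown in leucine-free medium were sorted into four equal gates by GFP/Cherry fluorescence ratio. Plasmids from each gate were PCR-amplified and Illumina-sequenced, and reads were assigned to strains by barcodes. Each peptide's protein stability index is the sum, over gates, of the gate's read frequency multiplied by its gate number.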

Sequence	protein stability index (doa10∆)	protein stability index (pdr5∆)	protein stability index (san1∆)	protein stability index (ubr1∆)
VKEYQLRDRNFSATGNF [RPL11A]	3.29 ± 0.097	3.27 ± 0.1	2.85 ± 0.28	3.22 ± 0.089
PRKLVLSSGENRYAFSQ [SMC4]	1.39 ± 0.08	1.56 ± 0.058	1.72 ± 0.086	1.59 ± 0.054
SMKMELLKKELLTIEPK [SMC2]	2.85 ± 0.081	2.69 ± 0.064	2.8 ± 0.07	2.61 ± 0.053
DRSKPVALTSFLGYKAG [RPL3]	2.85 ± 0.075	2.89 ± 0.063	3.08 ± 0.06	2.09 ± 0.036
KDLKEILSGFHNAGPVA [RPP1B]	2.93 ± 0.057	2.75 ± 0.062	2.62 ± 0.066	2.58 ± 0.066
PKNVKGEEDADEEETAE [RPN1]	3.21 ± 0.17	3.16 ± 0.26	3.01 ± 0.14	
CSNNKNSIKNVPPILII [SSN2]	2.39 ± 0.16	2.28 ± 0.098	2.52 ± 0.17	1.5 ± 0.085
KHHQLFYMLNAGIRPKF [RPN1]	2.23 ± 0.17	2.04 ± 0.085	1.7 ± 0.082	1.98 ± 0.1
SFNESQRGEDDLTFKLA [RPO21]			3.54 ± 0.15	1.09 ± 0.14
LVSMRYPEDKKTQQNEK [RPN3]			3.24 ± 0.039	3.12 ± 0.12
FVEVERARVTKDLVEIK [RPN5]	3.37 ± 0.11	3.44 ± 0.093	3.33 ± 0.066	3.56 ± 0.058
FNEKFPSLIQEEEEDTT [NUT1]	2.78 ± 0.086	3.15 ± 0.093	3.06 ± 0.074	3.06 ± 0.078
FRISLGLPVGAIMNCAD [RPL23A]	1.95 ± 0.045	1.9 ± 0.044	1.57 ± 0.057	1.7 ± 0.035
LRPGRIDRKVEFSLPDL [RPT1]	3.19 ± 0.098	3.35 ± 0.098	3.2 ± 0.16	3.18 ± 0.098
LLNHGERAELETDEYIS [RPN1]	1.55 ± 0.16	1.87 ± 0.083	3.08 ± 0.11	2.66 ± 0.11
PDFLSKYSAITSSIFQE [NUT1]	1.88 ± 0.041	2.05 ± 0.042	2.05 ± 0.06	2 ± 0.033
FTAEGIVPDLIINPHAI [RPB2]	2.24 ± 0.069	2.36 ± 0.081	2.08 ± 0.081	2.67 ± 0.082
GLGVLTHRNKDGTGVRV [FAS1]	3.12 ± 0.066	2.47 ± 0.094	3.58 ± 0.082	3.27 ± 0.085
QTFGVDILAKLFSLEKP [SWI1]	2.81 ± 0.063	2.52 ± 0.061	2.58 ± 0.058	2.51 ± 0.046
VPTSIQTKRWPTMYTRL [SIN4]	2.18 ± 0.048	2.57 ± 0.05	2.5 ± 0.047	2.62 ± 0.039
SAEDQLYAITFRKGLGN [QCR2]	3.06 ± 0.12	3.14 ± 0.16	2.96 ± 0.2	3.03 ± 0.17
SIAEEIPIAIVLKACGI [RET1]	1.61 ± 0.056	1.49 ± 0.049	1.31 ± 0.089	1.66 ± 0.049
DGKKHSVFYTILRDYGP [RPO31]	2.86 ± 0.072	2.95 ± 0.067	3.19 ± 0.054	2.87 ± 0.06
PNFLIMQGKITKVLNMK [SMC2]	2.73 ± 0.1	2.86 ± 0.07	2.85 ± 0.055	2.88 ± 0.063
TAIDKNGNITYSEEPRE [FAS2]	2.87 ± 0.069	3.29 ± 0.066	3.12 ± 0.076	3.15 ± 0.073

Sequence	protein stability index (doa10∆)	protein stability index (pdr5∆)	protein stability index (san1∆)	protein stability index (ubr1∆)
SENEDTKDLLSKSPSEW [CSE2]	3.21 ± 0.067	3.11 ± 0.067	3.15 ± 0.051	3.19 ± 0.046
ETAAMASLALAHVFVGT [RPN1]	1.39 ± 0.044	1.58 ± 0.047	1.61 ± 0.098	1.41 ± 0.052
FIDSICKLFDKISFNLR [SRB8]	2.23 ± 0.054	2.23 ± 0.046	1.96 ± 0.063	1.98 ± 0.053
ENNRLLFECRTCSYVEE [RPB9]	3.12 ± 0.13	3.2 ± 0.14	3.04 ± 0.17	3.29 ± 0.16
KDIKANLSSNVNFTEIG [YCS4]	2.83 ± 0.043	2.74 ± 0.051	2.77 ± 0.05	2.77 ± 0.039
MACNFQFPEIAYPGKLI [CSL4]	2.88 ± 0.12	2.9 ± 0.12	2.76 ± 0.12	2.62 ± 0.16
ESRAQNVFGQDNEDSDN [SWI3]	3.24 ± 0.1	3.16 ± 0.075	3.33 ± 0.048	3.2 ± 0.052
AGTKITICIELKTVLHN [RGR1]	1.18 ± 0.062	1.32 ± 0.07	1.39 ± 0.13	1.49 ± 0.09
LDDPVLNAIVSKNSPAE [YJR042W/NUP85]	2.9 ± 0.16	1.92 ± 0.1		2.01 ± 0.078
EDNEMLEDLFSYRNGMA [YJR042W/NUP85]	2.02 ± 0.082	1.89 ± 0.086	2.65 ± 0.089	1.95 ± 0.079
RKILESSNIVNENDSQA [YIL149C/MLP2]		2.88 ± 0.14	2.89 ± 0.085	
MMMQQQLKNVQLDSYLV [MED2]	2.21 ± 0.037	2.45 ± 0.061	1.69 ± 0.079	2.17 ± 0.032
HLRVRVHPFHVLRINKM [RPL10]	1.12 ± 0.09	1.21 ± 0.072	1.2 ± 0.087	1.27 ± 0.08
PFTASQSNINTNAPLRT [YIL149C/MLP2]	2.37 ± 0.12	2.49 ± 0.089	2.11 ± 0.075	2.08 ± 0.053
ETVKLPRVSNQSNEDTF [RRI2]	3.06 ± 0.13	3.22 ± 0.14	2.94 ± 0.19	3.24 ± 0.1
GTPLLEVRGQVPVIESA [SNU114]	1.62 ± 0.046	1.88 ± 0.052	2.06 ± 0.093	1.95 ± 0.048
NTENNDPDIPMTIDLEP [IRR1]	3.07 ± 0.17	2.94 ± 0.16	2.48 ± 0.19	3.14 ± 0.12
KLIIHRKNDNANDHDES [SMC3]		1.73 ± 0.21		1.36 ± 0.11
GAINVANCQRQLTEFWT [NNF1]	3.2 ± 0.16	2.76 ± 0.13	2.71 ± 0.21	
PGSRASSRFIKGGSLYG [RPN2]	2.19 ± 0.12	1.92 ± 0.11	1.45 ± 0.11	2.14 ± 0.069
EDETVKVAQLRQTGPAK [NSL1]	3.1 ± 0.16	2.83 ± 0.17	3.08 ± 0.19	3.67 ± 0.11
HYMVHEALNLLKFFLVD [LIN1]	2.19 ± 0.053	1.7 ± 0.043	1.79 ± 0.081	2.11 ± 0.058
KEAAAIAEGKSKQDASP [RPL8B]	2.96 ± 0.1	3.35 ± 0.083	2.99 ± 0.068	3.06 ± 0.062
QFVSKLVDNLNAEVVAG [BRR2]	2.25 ± 0.042	2.25 ± 0.049	2.22 ± 0.05	2.19 ± 0.041
GKGHLVGRLASVVAKQL [RPL16A]	1.33 ± 0.057	1.48 ± 0.051	1.33 ± 0.099	1.32 ± 0.05
